According to paper PMC314469, “Protein Interaction Networks by Proteome Peptide Scanning” (PLoS Biology, 2004):

T1: Yhr016c SH3 (YSC84_YEAST), P32793
T1 chain: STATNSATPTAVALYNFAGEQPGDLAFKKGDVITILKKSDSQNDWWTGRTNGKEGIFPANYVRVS

T2: Rvs167 SH3 (RV167_YEAST), P39743
T2 chain: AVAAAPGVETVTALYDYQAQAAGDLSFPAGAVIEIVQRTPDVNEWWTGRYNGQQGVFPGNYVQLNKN

T3: Boi1 SH3 (BOI1_YEAST), P38041
T3 chain: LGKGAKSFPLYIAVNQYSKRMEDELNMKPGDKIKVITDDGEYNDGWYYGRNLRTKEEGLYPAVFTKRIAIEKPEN

T4: Boi2 SH3 (BOI2_YEAST), P39969
T4 chain: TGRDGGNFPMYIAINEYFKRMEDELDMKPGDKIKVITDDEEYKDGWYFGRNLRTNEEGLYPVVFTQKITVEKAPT

T5: Yfr024 SH3 (LSB3_YEAST), P43603
T5 chain: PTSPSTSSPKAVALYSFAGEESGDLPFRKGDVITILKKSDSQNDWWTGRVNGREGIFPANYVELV


Legend:
Experiment in all cases: SPOT array
[1] = molecular target: T1, Yhr016c SH3 (YSC84_YEAST), P32793
[2] = molecular target: T2, Rvs167 SH3 (RV167_YEAST), P39743
[3] = molecular target: T3, Boi1 SH3 (BOI1_YEAST), P38041
[4] = molecular target: T4, Boi2 SH3 (BOI2_YEAST), P39969
[5] = molecular target: T5, Yfr024 SH3 (LSB3_YEAST), P43603

normalised SPOT signal, Boehringer light units (BLU); mean over the file's lines of this peptide [1]	normalised SPOT signal, Boehringer light units (BLU); mean over the file's lines of this peptide [2]	normalised SPOT signal, Boehringer light units (BLU); mean over the file's lines of this peptide [3]	normalised SPOT signal, Boehringer light units (BLU); mean over the file's lines of this peptide [4]	normalised SPOT signal, Boehringer light units (BLU); mean over the file's lines of this peptide [5]	Binder
182	25.7	679	118	866	QMNPKNPIRLGMAN [YOR227W 657-670]
1440	1140	2880	1420	4420	QMRPYTPLRSPNSR [YOR093C 49-62]
249	32.1	53.8	94.3	164	QPLPTSPSKRFSSL [YOR372C 249-262]
101	42.5	170	71.9	3880	QQKPAIPQKKSFLT [YPR171W 424-437]
148	23.6	14.1	-0	116	QNNPPKPQKPVPLN [YOR290C 415-428]

Further lines, the binder ahead of its results:

Binder	normalised SPOT signal, Boehringer light units (BLU); mean over the file's lines of this peptide [1]	normalised SPOT signal, Boehringer light units (BLU); mean over the file's lines of this peptide [2]	normalised SPOT signal, Boehringer light units (BLU); mean over the file's lines of this peptide [3]	normalised SPOT signal, Boehringer light units (BLU); mean over the file's lines of this peptide [4]	normalised SPOT signal, Boehringer light units (BLU); mean over the file's lines of this peptide [5]
QPAPRIPSKDAIIS [YAL051W 100-113]	95.9	169	58.1	23.6	1610
QLFPVRPVRVRHED [YDL150W 198-211]	13600	11400	34100	5900	28800
QILPTKPVKIIEQN [YLR082C 68-81]	73.8	14.6	30.5	36.5	183
QKTPPSPAKPKQKT [YBR102C 26-39]	176	156	331	43.4	365
QNTPPLPPKPKSPH [YCL008C 175-188]	18200	1050	102	46	38500
QPKPGNPLRNARLN [YMR191W 37-50]	169	49.2	174	21.7	266
QIFPKKPLRRTVMS [YDR182W 166-179]	8570	737	231	282	35400
QLTPLLPDKYFDSA [YBL066C 693-706]	207	106	50.1	19.8	516
QLLPNVPDKVLVPG [YDL220C 391-404]	92.2	67.5	87.7	49.5	69
QLEPLAPYKFFDII [YLR430W 1690-1703]	334	62.7	85.7	23.8	70.2
QLLPNNPDKNNNGT [YKL159C 151-164]	130	0	149	52.3	49.9
QGYPRQPQRPQRYH [YDR171W 27-40]	8440	620	7410	377	13200
